Measured values from patent US8722622B2, “FGF21 conjugates and anti-diabetic uses thereof” (COVX Technologies Ireland, Limited, priority 2010, dated 2014).
Like-named read-outs stand apart in the source and are kept apart here.

System: Glut1 mRNA expression in differentiated 3T3-L1 adipocytes
Assay: Glut1 Taqman assay
Assay type: cell-based
Procedure: Differentiated 3T3-L1 adipocytes were used to measure the Glut1 mRNA expression by qPCR method. Overnight serum starved day 10-14 differentiated 3T3-L1 adipocytes were treated with compounds for 6 hrs. Total RNA was extracted from these cells, and Glut1 and GAPDH mRNA expression was measured using a Quantitect Probe RT-PCR kit and running a quantitative real time PCR reaction in a Taqman machine (Applied Biosystems®). The bioactivity of the compounds was determined by a fold change in Glut1 mRNA levels normalized by the GAPDH mRNA levels from each sample. EC50 values as measurements of the potency of the compounds were obtained from the dose response curves in the assay.
3T3-L1 adipocytes were seeded at day 8 in 24-well tissue culture plates (Falcon®, Cat#353047), and incubated in DMEM complete medium (10% FBS, 2 mM L-glutamine, 1% P/S) at 37° C., 5% CO2. […] The medium was aspirated, and then RNA extracted from the cells using the RNeasy mini Kit according to the manufacturer's instructions. RNA was measured at A260 nm using the Spectramax® Plus spectrophotometer.

B1: FGF21ΔH: FGF21 with H1 absent (ΔH1), L146, SEQ ID NO:2; control protein (protein, listed as Homo sapiens)
chain: PIPDSSPLLQFGGQVRQRYLYTDDAQQTEAHLEIREDGTVGGAADQSPESLLQLKALKPGVIQILGVKTSRFLCQRPDGALYGSLHFDPEACSFRELLLEDGYNVYQSEAHGLPLHLPGNKSPHRDPAPRGPARFLPLPGLPPAPLEPPGILAPQPPDVGSSDPLSMVGPSQGRSPSYAS
Q: Which EC50 (3T3-L1 adipocytes, 6 hrs, Taqman quantitative real-time PCR, read-out: Glut1 RNA expression EC50) does the source give for B1 here?
A: Its EC50 is 3.39 nM.

Q: And the “Glut1 induction in 3T3-L1 adipocytes” value (6 hrs)?
A: Its value is “dose-dependent Glut1 induction”.

Q: And the EC50 (unconjugated protein, n in brackets, read-out: Glut1 Taqman unconjugated Protein EC50)?
A: Its EC50 is 2.3 nM.
